In paper PMC12727980 one finds IC50 and Kd data, which are given here for 3 sequences.

Data set [1] concerns the target T1, GST-KH (Bicc1 KH domains) (UniProt Q99MQ1).
T1 sequence (Q99MQ1 whole entry, looked up): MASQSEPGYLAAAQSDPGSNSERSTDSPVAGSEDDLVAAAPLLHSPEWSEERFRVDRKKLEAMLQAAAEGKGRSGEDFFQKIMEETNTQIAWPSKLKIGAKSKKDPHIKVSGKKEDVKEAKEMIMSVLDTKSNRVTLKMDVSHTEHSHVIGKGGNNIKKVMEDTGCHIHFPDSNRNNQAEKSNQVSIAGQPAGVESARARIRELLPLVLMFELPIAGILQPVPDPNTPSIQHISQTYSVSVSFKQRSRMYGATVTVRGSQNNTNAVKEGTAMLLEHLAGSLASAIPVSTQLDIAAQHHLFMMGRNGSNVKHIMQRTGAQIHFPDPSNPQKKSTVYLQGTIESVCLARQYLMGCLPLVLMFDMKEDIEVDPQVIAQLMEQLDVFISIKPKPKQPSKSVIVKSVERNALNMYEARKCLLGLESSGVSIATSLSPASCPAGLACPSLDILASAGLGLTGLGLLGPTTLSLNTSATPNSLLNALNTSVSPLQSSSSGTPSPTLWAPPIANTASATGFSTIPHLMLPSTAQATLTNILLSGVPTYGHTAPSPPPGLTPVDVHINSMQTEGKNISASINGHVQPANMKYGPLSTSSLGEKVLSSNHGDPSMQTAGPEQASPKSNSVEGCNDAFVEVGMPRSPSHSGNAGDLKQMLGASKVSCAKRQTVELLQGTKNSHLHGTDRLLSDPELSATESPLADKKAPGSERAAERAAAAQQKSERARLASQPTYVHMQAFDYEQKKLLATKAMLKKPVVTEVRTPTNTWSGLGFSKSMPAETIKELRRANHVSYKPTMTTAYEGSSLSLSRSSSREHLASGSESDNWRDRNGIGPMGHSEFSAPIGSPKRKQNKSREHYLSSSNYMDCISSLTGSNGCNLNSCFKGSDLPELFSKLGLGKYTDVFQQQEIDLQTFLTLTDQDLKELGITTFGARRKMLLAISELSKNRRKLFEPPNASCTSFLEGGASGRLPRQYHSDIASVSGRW
The experiment in a line: competition. The settings on record: EMSA buffer 1X: 10 mM Tris-HCl pH 8.0, 100 mM KCl, 2.5 mM MgCl2, 2.5% glycerol (slightly below 1X in some mixes); about 1 mM DTT, 0.05 ug/uL yeast tRNA; 50 nM …. A general note: Mobility shift assays separate free from complexed probe on a gel.

In data set [2] the target is T1, GST-KH (Bicc1 KH domains). In words: EMSA. The settings on record: EMSA buffer 1X: 10 mM Tris-HCl pH 8.0, 100 mM KCl, 2.5 mM MgCl2, 2.5% glycerol (slightly below 1X in some mixes); about 1 mM DTT, 0.05 ug/uL yeast tRNA; 50 nM ….

Turning to “GAAGAAAAAGGUGACCUGAAUGAUGUGCAUCGGGUCAAGAGAGCAGAA [Dand5 3'UTR66-110 Mut untagged competitor]”, the IC50 in data set [1] is more than 1000 nM.
As to “GAAGAAAGACGUGACCUGAAUGAUGUGCAUCGGGUCAAGAGAGCAGAAACACGUACCGAGAUGGUGCGC / CGCACCATCTCGGTACGTG [Dand5 3'UTR66-110 WT Tag#2 annealed to Probe #2]”, in data set [2], the Kd was found to be 109 nM.
The same measure, in the same setting: then “GAAGAAAGACGUGACCUGAAUGAUGUGCAUCGGGUCAAGAGAGCAGAAUGUCUGGGCAACAGGCUCAGG / CTGAGCCTGTTGCCCAGAC [Dand5 3'UTR66-110 WT Tag#1 annealed to Probe #1]”, with 103 nM.

As usually defined, the IC50 is the point on the concentration scale where inhibition reaches its midpoint. The term Kd denotes a measure of binding affinity in units of concentration. A higher Kd goes with lower affinity.
